Data set [1] concerns cells embedded in PEG-heparin hydrogel, transfected with calcium sensor. Description: Response to neurotransmitter glutamate, calcium sensor fluorescence in hydrogel-embedded cells. In kind it is cell-based, human. Particulars: after addition of glutamate. An excerpt: FIG. 5 depicts the results of the measurement of the total fluorescence intensities in the case of addition of the neurotransmitter glutamate. […] The cells in image A2 are embedded in a PEG-heparin hydrogel system before the addition of the neurotransmitter glutamate. Images A3 and A4 show a high magnification of a Gcampf6-transfected cell which is embedded in the PEG-heparin hydrogel system.

For data set [2], the system named is primary human cortical cells (PHCCs). As to the kind of experiment: Aβ42 neurotoxicity model, PHCCs in 3D star-PEG-heparin hydrogel. In kind it is cell-based. The method, then: FIG. 11 contains a graphic depiction of the preparation of the PEG-heparin hydrogel for the investigation of the effect of amyloid β 42 peptides (Aβ42) in primary human cortical cells. Cells of the second passage were placed into a Petri dish in a density of 5×10^3 per cm^2 in step 1. For the purposes of the Aβ42 neurotoxicity model, cells of the second passage were likewise placed in a Petri dish in a density of 5×10^3/cm^2 and incubated for 48 hours with 2 μM Aβ42 (step 1′).
After 48 hours, the cells were harvested and resuspended in phosphate-buffered saline solution (PBS) at a concentration of 8×10^6 cells per ml in a step 2. Then, the same volume of heparin solution (45 μg/μl in PBS) was added and the two were mixed to give a final concentration of 4×10^6 cells/ml in a step 3. In the case of the coating of the extracellular environment of the cells embedded in the PEG-heparin hydrogel system with […], a mixture of Aβ42 peptide in a concentration of 40 μM was added in step 3′.
To cast a gel, the cell solution, PBS and heparin in step 3 were mixed with the same volume of star-PEG. […] The reactions for gel formation last two minutes. After the casting, the gels were placed into 24-well culture plates, with each well containing a culture medium. To culture and to incubate the gels, a ratio of 5% CO2/95% air at 37° C. was used. Gels can be cultured until the desired time point.
Amyloid β 42 peptide, a misfolded protein relevant to Alzheimer's disease, was also used in order to model its toxicity and its effects on neuronal networks. The method according to the invention using a three-dimensional hydrogel system for culturing can, in this way, also be used as a model for neurodegenerative diseases. […] To investigate whether amyloid β 42 (Aβ42) influences the neuronal network, cultures were generated by treating the cells with Aβ42 before introduction into the hydrogel system (intracellular Aβ42) or incubating the hydrogels with Aβ42 before introduction of the cells (extracellular Aβ42). […] Furthermore, the three-dimensional hydrogel system can be used as a practical screening platform for testing compounds which might restore the neurogenic capacity of human stem cells and the formation of neuronal networks even in the presence of Aβ42.
To use gels which were pretreated with amyloid β 42 (Aβ42), the cells were incubated with 2 μM Aβ42 for 48 hours prior to the cell collection from the culture vessel and prior to the embedding of the cells in the hydrogel. To generate a gel environment which contains Aβ42, the cells were first dissolved in 4 μl of 100 μM Aβ42 peptide in PBS. 6 μl of the heparin solution (0.448 mg of HEP-HM6 dissolved in 6 μl of PBS) and 10 μl of the starPEG-MMP solution (0.347 mg of starPEG-MMP dissolved in 10 μl of PBS) were added and, as described above, mixed. In this gel mixture, the concentration of Aβ42 is 20 μM and the concentration of the cells is 2×10^6 cells per ml.
To use gels which were pretreated with amyloid β 42 (Aβ42), the cells were incubated with 2 μM Aβ42 for 48 hours prior to the cell collection from the culture vessel and prior to the embedding of the cells in the hydrogel.
All hydrogels were fixed with ice-cold paraformaldehyde and incubated at room temperature for 1.5 h, followed by a wash in PBS overnight at 4° C. […]
For the hydrogels, fluorescence recordings were carried out using a Leica SP5 inverted confocal and multiphoton microscope. […]

For data set [3] the test system is unchanged. Description: Effect of IL-4 on Aβ42 toxicity, PHCCs in star-PEG-HEP hydrogels. The data set is classed as cell-based. As to the method: To test whether IL-4 acts in humans in a similar manner as could be previously shown in zebrafish investigations for example, the abovementioned star-PEG-HEP hydrogels containing PHCCs were used. To this end, hydrogels containing embedded PHCCs were prepared and they were incubated with Aβ42, as already described. Each test setup contained a positive (with Aβ42) and a negative control group (without Aβ42) as well as an experimental group with Aβ42 and IL-4. In the experimental group, the star-PEG-HEP gels containing embedded PHCCs were cultured with Aβ42 and, at the same time, in the presence of 100 ng/ml IL-4 in the medium. After a three-week culturing phase, the samples were fixed and immunologically stained with respect to GFAP and SOX2 in order to investigate effects of IL-4 on the neural stem and progenitor cells. The nucleus dye DAPI was used in order to show entire cells. […] It can be concluded that the treatment with interleukin 4 stimulates GFAP-positive cells in relation to proliferation to form more neuronal stem and progenitor cells. IL-4 thus increases the neuroplasticity of the embedded PHCCs despite the presence of neurotoxic Aβ42. […] IL-4 is thus an important candidate for future therapies against Aβ42-mediated neurodegeneration.

Setting [4] is: Aβ42-treated gels compared with control gels.

“Also recorded” adds a separate entry of the source.

On to `N[C@@H](CCC(=O)O)C(=O)O` [glutamate], for which, in data set [1], the “fluorescence signal of calcium sensor (intracellular calcium influx)” value is listed as “increased fluorescence signal; also recorded: increase in the intracellular calcium level”.
As for “Aβ42: Amyloid β 42 peptide, a misfolded protein relevant to Alzheimer's disease”, in data set [2] (setting [4]), the “number of branches per network” value is on record as “significantly lower”, the number of cells entry is given as “significantly reduced” and the number of networks entry is “significantly reduced”. Further, the effect on axons result in data set [2] (Aβ42 treatment) is recorded as “dystrophy of axons”. In addition, the neuronal network formation result in data set [2] (intracellular and extracellular Aβ42, compared with control gels) is “significant impairment”. Further, the “cell count (GFAP-positive and SOX2-positive cells)” value in data set [3] (Aβ42-treated cultures vs untreated control, three-week culture) was “strong decline”.

B1: IL-4: interleukin 4 (protein, UniProt P05112 25-153, looked up)
Interleukin-4: HKCDITLQEIIKTLNSLTEQKTLCTELTVTDIFAASKNTTEKETFCRAATVLRQFYSHHEKDTRCLGATAQQFHRHKQLIRFLKRLDRNLWGLAGLNSCPVKEANQSTLENFLERLKTIMREKYSKCSS
Regarding B1, the “proliferation of human neuronal stem cells” value in data set [3] (Aβ42 plus 100 ng/ml IL-4) is listed as “activates the proliferation”. In data set [3] (Aβ42 plus 100 ng/ml IL-4 in the medium, three-week culture), the cell count result is reported as “altogether comparable with the control cultures without Aβ42 treatment”.

For the origin of these results see patent US20190247546A1, “METHOD FOR FORMING A FUNCTIONAL NETWORK OF HUMAN NEURONAL AND GLIAL CELLS” (LEIBNIZ-INSTITUT FÜR POLYMERFORSCHUNG DRESDEN E.V., priority 2016, published 2019).
